In patent US20190119389A1 (POTENZA THERAPEUTICS, published 2019):
Numbering of substitutions follows the chain as printed.

T1: Cyno NRP-1 His (cynomolgus monkey, UniProt O14786 22-856 (human entry), limits assumed)
T1 construct: Recombinant monomeric protein; also called cynomolgus monkey NRP-1-His; cNRP-1; not shown: His tag
T1 chain: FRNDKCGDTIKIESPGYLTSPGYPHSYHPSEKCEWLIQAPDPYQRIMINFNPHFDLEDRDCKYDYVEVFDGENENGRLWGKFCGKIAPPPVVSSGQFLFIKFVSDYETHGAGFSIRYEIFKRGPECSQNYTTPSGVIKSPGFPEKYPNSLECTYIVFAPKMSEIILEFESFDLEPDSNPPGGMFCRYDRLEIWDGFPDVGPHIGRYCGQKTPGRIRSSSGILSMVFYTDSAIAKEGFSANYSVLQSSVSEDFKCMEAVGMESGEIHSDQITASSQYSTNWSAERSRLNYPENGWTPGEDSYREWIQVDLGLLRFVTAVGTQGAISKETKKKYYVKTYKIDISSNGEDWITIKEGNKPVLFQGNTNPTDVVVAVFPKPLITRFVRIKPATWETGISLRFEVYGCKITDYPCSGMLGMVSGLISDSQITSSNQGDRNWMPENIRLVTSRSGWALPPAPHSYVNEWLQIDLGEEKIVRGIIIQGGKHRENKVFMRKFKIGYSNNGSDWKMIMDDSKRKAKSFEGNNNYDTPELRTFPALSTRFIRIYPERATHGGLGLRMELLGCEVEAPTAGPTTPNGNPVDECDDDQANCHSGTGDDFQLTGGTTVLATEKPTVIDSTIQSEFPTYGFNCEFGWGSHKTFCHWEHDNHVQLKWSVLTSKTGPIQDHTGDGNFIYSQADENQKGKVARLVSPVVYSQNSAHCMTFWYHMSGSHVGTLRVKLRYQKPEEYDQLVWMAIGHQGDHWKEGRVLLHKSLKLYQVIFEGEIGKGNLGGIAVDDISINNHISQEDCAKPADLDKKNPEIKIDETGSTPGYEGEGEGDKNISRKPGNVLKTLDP

B1: MAB2 Fab (Fab, V domains shown)
VH: QVQLVQSGAEVKKPGASVKVSCKASGYTFRSYYMLWVRQAPGQGLEWMGIIDPSDGSTSYAQKFQGRVTMTRDASTSTVYMELSSLRSEDTAVYYCARGARRITGYGMDVWGQGTTVIVSS
VL: DIQMTQSPSSVSASVGDRVTITCRASQGISSWLAWYQQKPGKAPKLLIYAASNLQSGVPSRFSGSGSGTDFTLTISSLQPEDFATYYCQQASVFPFTFGGGTKVEIK
B2: MAB4 Fab (Fab, V domains shown)
VH: QVQLVQSGAEVKKPGASVKVSCKASGYTFSRYYMHWVRQAPGQGLEWMGIINPLGGSTLYAQKFQGRVTMTRDTSTSTVYMELSSLRSEDTAVYYCARDLGYYGSGMHVWGQGTLVTVSS
VL: B1 VL with S31R, N53S, S92N, V93L, F94L
B3: MAB8 Fab (Fab, V domains shown)
VH: EVQLLESGGGLVQPGGSLRLSCAASGFTFASYAMVWVRQAPGKGLEWVSIISGSGGSTYYADSVKGRFTISRDNSKNTLYLQMNSLRAEDTAVYYCAKDPGYDSSRYYYSNYGMDVWGQGTTVTVSS
VL: DIQMTQSPSSLSASVGDRVTITCRASQSISSYLNWYQQKPGKAPKLLIYGASSLQSGVPSRFSGSGSGTDFTLTISSLQPEDFATYYCQQTYSLYTFGGGTKVEIK
B4: MAB9 Fab (Fab, V domains shown)
VH: B3 VH with A30K, S57A
VL: B3 VL
B5: MAB11 Fab (Fab, V domains shown)
VH: B3 VH with A30S, Y32V, I50A, S57A, K65E, N84S
VL: B3 VL
B6: MAB12 Fab (Fab, V domains shown)
VH: B3 VH with A30S, Y32V, I50A, S57A, K65E
VL: B3 VL
B7: MAB14 Fab (Fab, V domains shown)
VH: QVQLQQWGAGLLKPSETLSLTCAVYGGSFRGYYWEWSRQPPGKGLEWIGEISHSGSTNYNPSLKSRVTISVDTSKNQFSLKLSPVTAADTAVYYCARARPYREPYGMDVWGQGTTVTVSS
VL: B1 VL with M4L, G28D, N53S, A91E, S92L, V93A, F96R
B8: MAB3 Fab (Fab, V domains shown)
VH: B2 VH with V2A, V109A
VL: B1 VL with S31R, N53S, S92N, V93L, F94L
B9: MAB6 Fab (Fab, V domains shown)
VH: QVQLVQSGAKVKKPGASVKVSCKASGYTFTSYYMHWVRQVPGQGLEWMGIINPQGGDTSYAQKFQGRVTMTRDTSTSTVYMELSSLRSEDTAVYYCARDRGMYYASGFNPWGQGTLVTVSS
VL: EIVMTQSPGTLSLSPGERATLSCRASQSVSSSYLAWYQQKPGQAPRLLIYGASNRATGIPDRFSGSGSGTDFTLTISRLEPEDFAVYYCQQLSSFPITFGGGTKVEIK
B10: MAB5 Fab (Fab, V domains shown)
VH: B9 VH with K10E, V40A, N109G
VL: B9 VL
B11: MAB10 Fab (Fab, V domains shown)
VH: B3 VH with A30S, Y32V, I50A, S57A
VL: B3 VL
B12: MAB1 Fab (Fab, V domains shown)
VH: B1 VH with E10G, A74T, S75P, I118T
VL: B1 VL
B13: MAB13 Fab (Fab, V domains shown)
VH: B7 VH with S37I, P84S
VL: B1 VL with M4L, G28D, N53S, A91E, S92L, V93A, F96R
B14: MAB15 Fab (Fab, V domains shown)
VH: QVQLQQWGAGLLKPSETLSLTCAVYGGSFVKYYWSWIRQPPGKGLEWIGDIWHSGMTNYNPSLKSRVTISVDTSKNQFSLKLSSVTAADTAVYYCARGPGYDSSGYSRRFDPWGQGTLVTVSS
VL: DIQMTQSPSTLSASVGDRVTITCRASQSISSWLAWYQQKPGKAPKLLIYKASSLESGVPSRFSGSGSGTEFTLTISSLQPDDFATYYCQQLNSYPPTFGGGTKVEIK
B15: MAB1 (antibody, V domains shown)
VH: B1 VH with E10G, A74T, S75P, I118T
VL: B1 VL
B16: MAB2 (antibody, V domains shown)
VH: B1 VH
VL: B1 VL
B17: MAB3 (antibody, V domains shown)
VH: B2 VH with V2A, V109A
VL: B1 VL with S31R, N53S, S92N, V93L, F94L
B18: MAB4 (antibody, V domains shown)
VH: B2 VH
VL: B1 VL with S31R, N53S, S92N, V93L, F94L
B19: MAB13 (antibody, V domains shown)
VH: B7 VH with S37I, P84S
VL: B1 VL with M4L, G28D, N53S, A91E, S92L, V93A, F96R
B20: MAB14 (antibody, V domains shown)
VH: B7 VH
VL: B1 VL with M4L, G28D, N53S, A91E, S92L, V93A, F96R
B21: MAB5 (antibody, V domains shown)
VH: B9 VH with K10E, V40A, N109G
VL: B9 VL
B22: MAB15 (antibody, V domains shown)
VH: B14 VH
VL: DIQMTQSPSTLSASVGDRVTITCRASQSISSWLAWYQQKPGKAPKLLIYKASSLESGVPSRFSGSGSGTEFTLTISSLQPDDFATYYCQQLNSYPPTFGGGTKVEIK

Each binder was assayed against T2, Human NRP-1 His (human, UniProt O14786 22-856) (assay: MSD-SET solution equilibrium titration, Fab).
T2 construct: Recombinant monomeric protein; Biotinylated in the MSD-SET assay; also called hNRP-1; not shown: His tag

Binder | Kd [nM]
B1 | 0.23
B2 | 0.046
B3 | 0.096
B4 | 0.019
B5 | 0.021
B6 | 0.026
B7 | 0.28
B8 | 0.06
B9 | 0.45
B10 | 0.28
B11 | 0.064
B12 | 0.32
B13 | 0.54
B14 | 0.18

Each binder was assayed against T2, Human NRP-1 His (assay: BLI ForteBio, IgG1 N297A on AHQ sensor, 100 nM monomeric antigen, 1:1 fit).

Binder | Kd [nM]
B15 | 1.87
B16 | 1.86
B17 | 1.08
B18 | 0.851
B19 | 1.41
B20 | 1.12
B21 | 3.23
B22 | 0.851

Biological target: T1, Cyno NRP-1 His
Test: as above

Binder | Kd [nM]
B15 | 2.16
B16 | 2.43
B17 | 1.19
B18 | 0.925
B19 | 1.58
B20 | 1.1
B21 | 4.09
B22 | 9.2

Each binder was assayed against T3, Mouse NRP-1 His (mouse, UniProt P97333 22-856) in the same assay as above.
T3 construct: Recombinant monomeric protein; also called mNRP-1; not shown: His tag

Binder | Kd [nM]
B15 | 2.12
B16 | 1.94
B17 | 0.99
B18 | 0.746
B19 | 7.42
B20 | 5
B21 | 5.06
B22 | 54.1

The binders below were run against T4, recombinant human NRP-1 (human, UniProt O14786 22-856, limits assumed) (assay: blocking ELISA: SEMA3A coated, biotinylated human NRP-1 preincubated with IgG1 antibody; competitor SEMA3A).
T4 construct: also called biotinylated human NRP-1
T4 sequence (O14786 22-856 V179A limits assumed): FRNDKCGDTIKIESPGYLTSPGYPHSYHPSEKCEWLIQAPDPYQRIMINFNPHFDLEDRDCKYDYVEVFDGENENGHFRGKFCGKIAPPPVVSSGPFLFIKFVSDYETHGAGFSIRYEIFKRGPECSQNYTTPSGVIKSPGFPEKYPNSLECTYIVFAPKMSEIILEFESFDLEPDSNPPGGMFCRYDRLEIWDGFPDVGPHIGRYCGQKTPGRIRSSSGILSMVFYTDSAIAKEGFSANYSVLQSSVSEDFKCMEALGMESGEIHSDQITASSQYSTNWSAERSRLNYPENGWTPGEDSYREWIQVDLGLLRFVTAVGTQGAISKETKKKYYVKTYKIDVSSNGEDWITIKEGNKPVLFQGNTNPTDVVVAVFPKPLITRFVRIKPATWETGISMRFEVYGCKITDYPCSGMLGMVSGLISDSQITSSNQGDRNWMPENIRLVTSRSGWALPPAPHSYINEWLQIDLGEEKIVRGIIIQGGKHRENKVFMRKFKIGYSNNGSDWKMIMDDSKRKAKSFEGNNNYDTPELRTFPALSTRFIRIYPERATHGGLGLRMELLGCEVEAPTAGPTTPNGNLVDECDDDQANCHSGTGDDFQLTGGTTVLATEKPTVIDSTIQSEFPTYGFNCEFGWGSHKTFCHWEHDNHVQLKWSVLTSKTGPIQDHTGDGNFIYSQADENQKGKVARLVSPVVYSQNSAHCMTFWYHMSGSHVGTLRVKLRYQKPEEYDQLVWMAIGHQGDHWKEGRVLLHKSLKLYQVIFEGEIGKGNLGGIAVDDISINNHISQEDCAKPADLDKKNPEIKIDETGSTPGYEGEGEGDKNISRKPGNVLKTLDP

Binder | IC50 [nM]
B15 | 2.9
B16 | 3.1
B17 | 0.6
B18 | 3.9
B19 | 3.4
B20 | 3.1
B21 | 5.9
